The results in this text go back to the supplement of paper PMC9170038.

For the data set, the system named is MS2 coat protein. The data set can be described thus: apparent KD of MS2 coat protein; designed switch direction (-1 OFF switch, 1 ON switch): 1; higher = weaker reporter binding. Put shortly:
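Designed RNA switches with common flanks were transcribed on Illumina chips by stalled E. coli RNA polymerase and titrated with SNAP-549-labelled MS2 coat protein, from 0.7 or 1.5 nM doubling to 3 µM, in Tris-HCl pH 7.5 buffer with KCl, MgCl2, BSA, DTT, tRNA and Tween-20. Steps lasted 0.8–1.5 h (lowest) to 10–20 min (highest). Titrations ran without input, with 200 uM small-molecule ligand, or with an oligonucleotide input. Normalised cluster fluorescence was curve-fitted, and apparent KD is the per-design median over clusters.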

The mark [1] stands for this setting: input ligand: microRNA oligo, concentration not stated.
Where [2] appears, read: Eterna round: R95, input ligand: FMN 200 uM.
Setting [3] is: Eterna round: R95, input ligand: microRNA oligo, concentration not stated.
Where [4] appears, read: Eterna round: R95, input ligand: none.

“UAGCUCGUGUGAGGAUAUGCCGCCGUUUCGGCUGCAGAAGGUGCUACGUUACAUGAGGAUCACCCAUGUCUCUGUUGUUUCGUG [salish99_SSNG1_r04_957] (Eterna round: R96, puzzle: Same State NG 1)”: the “apparent KD of MS2 coat protein” value (input ligand: FMN 200 uM) came out at 0.0189 µM, the “apparent KD of MS2 coat protein” value under setting [1] was 0.0196 µM and the “apparent KD of MS2 coat protein” value (input ligand: none) was determined as 0.0218 µM.

As for “UAGGCUGGUACAGGAUAUGCCGUAUUUUAGUCGGCAGAAGGGUGCUCACAUGAGGAUCACCCAUGUAUACAGCCAGAUCAUGUU [MOD JMF Solution 2] (Eterna round: R96, puzzle: Same State NG 1)”, the “apparent KD of MS2 coat protein” value is, setting by setting: (input ligand: FMN 200 uM) 0.132 µM; under setting [1], 0.107 µM; (input ligand: none) 0.0432 µM.

Regarding “UAGUACAUGCUUUUUGCCCGUCUUAGAUAACAUGAGGAUCACCCAUGUAAGGUGAAAGUUAUAUAGUGGAGGAAGAU [JR_SHM208A_Sub055] (puzzle: Sensor for hsa-mir-208a)”, the “apparent KD of MS2 coat protein” value stood at 0.107 µM under setting [2], 0.36 µM under setting [3] and 0.107 µM under setting [4].

Turning to “UAGUGCAUUAGAGGAUAUUCUUACGACACGAGUAAGACAUGAGGAUCUCCCAUGUUGUGGCAUGGGAAGAAGGCUGAUGUGCUA [Omei SS(NG)2 Bv8] (Eterna round: R96, puzzle: Same State NG 2)”, the “apparent KD of MS2 coat protein” value by setting is: (input ligand: FMN 200 uM) 0.0525 µM; under setting [1], 0.00684 µM; (input ligand: none) 0.155 µM.

Turning to “UAGUUACUAUCUCAGGAUAUCAUGUCAAAGACAUGAGGAUCACCCAUGUACCAGGAAACUGGUUAUGAGAAGGGAGAUAGUAACU [Mat - Same State 2 - Mod - D55] (puzzle: Same State 2)”, the “apparent KD of MS2 coat protein” value by setting is: under setting [2], 0.134 µM; under setting [3], 0.104 µM; under setting [4], 1.07 µM.

Turning to “UAGUUUUAGCGAGGAUAUCGUAUGUUUAAUUUUUUAUAUUGUUUACAUGAGGAUCACCCAUGUUACGAGAAGGCGCAUGGGAUU [JR_SSNG2_Sub080] (Eterna round: R96, puzzle: Same State NG 2)”, the “apparent KD of MS2 coat protein” value under setting [1] is 0.273 µM.

As to “UAUGAACAUGAGGAUCACCCAUGUGGUACGAUCACAGGAUAUCACCUCGGACGUGCGAUGUGAGAAGGGUGAUGGU [Same State 1 - Mod of Vinnie Anrelari v.1] (puzzle: Same State 1)”, the “apparent KD of MS2 coat protein” value under setting [3] worked out at 0.0631 µM.

For the sequence “UAUUUAAUCGUAGGAUAUAGAAUGAAAUUUGUACUAGAAGGACGUUACAUGAGGAUCACCCAUGUGGUAAGUGGGACAUAGAUU [JR_SSNG1_Sub035] (Eterna round: R96, puzzle: Same State NG 1)”, the “apparent KD of MS2 coat protein” value runs as follows: (input ligand: FMN 200 uM) 0.235 µM; under setting [1], 0.105 µM; (input ligand: none) 0.121 µM.

For the sequence “UCCUCAGUUUCACAGGAUAUGCGCUGAGUCACAUGAGGAUCACCCAUGUAGACGGAAAAUGUCGGGCAGAAGGGUGAGGCAUAAA [Diretibe] (puzzle: Same State 2)”, the “apparent KD of MS2 coat protein” value by setting is: under setting [2], 0.0572 µM; under setting [3], 0.117 µM; under setting [4], 4.57 µM.

Turning to “UCGGGCGUACUUGCUGACAUGAGGAUCACCCAUGUAAUUGGGAAGGAUAUGGUUCCGUUUCGGUUCCAGAAGGUCCUGGGUGCU [salish99_SSNG3_r04_312] (Eterna round: R96, puzzle: Same State NG 3)”, the “apparent KD of MS2 coat protein” value (input ligand: FMN 200 uM) is 0.819 µM, the “apparent KD of MS2 coat protein” value under setting [1] came to 0.331 µM and the “apparent KD of MS2 coat protein” value (input ligand: none) came out at 0.443 µM.

Consider “UCGUUCAUCGUAGGAUAUCUAGGAUAUGAACGAGGAUCACCCGAGCAGCAUCAGCGCAUCAGAGGAGAGAAGGACGAUGAUGCG [pwkr ssNG2 2F5 2FMN.4] (Eterna round: R96, puzzle: Same State NG 2)”, for which the “apparent KD of MS2 coat protein” value is, setting by setting: (input ligand: FMN 200 uM) 1.08 µM; under setting [1], 0.0372 µM; (input ligand: none) 0.172 µM.

In the case of “UCGUUCAUCGUAGGAUAUCUAGGAUAUGAACGAGGAUCACCCGAGCAGCAUCAGCGCAUCAGAGGAGAGAAGGACGCUGAUGCG [pwkr ssNG2 2F5 2FMN.20] (Eterna round: R96, puzzle: Same State NG 2)”, the “apparent KD of MS2 coat protein” value was found to be 0.03 µM (input ligand: FMN 200 uM), 0.00883 µM under setting [1] and 0.0848 µM (input ligand: none).

With “UCUGCAAUUAACGCCUACAUGAGGAUCACCCAUGUAUGUAGGCAGGAUAUCGUUUGCUUUGCAAACGAGAAGGGCUGUAGUAGC [salish99_SSNG3_R04_001] (Eterna round: R96, puzzle: Same State NG 3)”, the “apparent KD of MS2 coat protein” value was determined as 0.0524 µM (input ligand: FMN 200 uM), 0.0492 µM under setting [1] and 0.0616 µM (input ligand: none).

Regarding “UCUUGGUUUUUGCUCGUUUUUUGUGUUGAACAUGAGGAUCACCCAUGUAUUGUACGAUCCAAUUUGAUAAUGGUCCG [JMF 61] (puzzle: Sensor for hsa-mir-208a)”, the “apparent KD of MS2 coat protein” value was 0.0442 µM under setting [2], 0.0344 µM under setting [3] and 0.0487 µM under setting [4].

In the case of “UCUUGGUUUUUGCUCGUUUUUUGUGUUGAACAUGAGGAUCACCCAUGUAUUGUACGGUCCAAUUUAGUAAUGGUCCG [JMF 26] (puzzle: Sensor for hsa-mir-208a)”, the “apparent KD of MS2 coat protein” value runs as follows: under setting [2], 0.0254 µM; under setting [3], 0.0132 µM; under setting [4], 0.0236 µM.

On to “UCUUGGUUUUUGCUCGUUUUUUGUGUUGAACAUGAGGAUCACCCAUGUAUUGUACGGUCCAAUUUAGUGGUAAUCCG [JMF 66] (puzzle: Sensor for hsa-mir-208a)”, for which the “apparent KD of MS2 coat protein” value under setting [2] came to 0.0451 µM, the “apparent KD of MS2 coat protein” value under setting [3] came to 0.029 µM and the “apparent KD of MS2 coat protein” value under setting [4] amounted to 0.0487 µM.

As for “UCUUGGUUUUUGCUCGUUUUUUGUGUUGAACAUGAGGAUCACCCAUGUAUUGUACGGUCCAAUUUGAUAAUGGUCCG [JMF 27] (puzzle: Sensor for hsa-mir-208a)”, the “apparent KD of MS2 coat protein” value runs as follows: under setting [2], 0.0251 µM; under setting [3], 0.0139 µM; under setting [4], 0.0256 µM.

For the sequence “UCUUGGUUUUUGCUCGUUUUUUGUGUUGAACAUGAGGAUCACCCAUGUAUUGUACGGUCCAGUUUGGUAAUGGUCCA [JMF 8] (puzzle: Sensor for hsa-mir-208a)”, the “apparent KD of MS2 coat protein” value is, setting by setting: under setting [2], 0.0312 µM; under setting [3], 0.0205 µM; under setting [4], 0.035 µM.

“UCUUGGUUUUUGCUCGUUUUUUGUGUUGAACAUGAGGAUCACCCAUGUAUUGUACGGUCCGAUUUGAUGAUGGUCCA [JMF 42] (puzzle: Sensor for hsa-mir-208a)”: the “apparent KD of MS2 coat protein” value was found to be 0.0314 µM under setting [2], 0.0222 µM under setting [3] and 0.0351 µM under setting [4].

As to “UGAACCGUCACAGGAUAUCAUGCGAAAAUUGCGUGAGAAGGGUGGAUGUUGUGCUCAAAGUUAUACAUGAGGAUCACCCAUGUU [SameState NG1 #45] (Eterna round: R96, puzzle: Same State NG 1)”, the “apparent KD of MS2 coat protein” value turned out to be 0.133 µM (input ligand: FMN 200 uM), 0.188 µM under setting [1] and 0.285 µM (input ligand: none).

With “UGAAUACAUGAGGAUCACCCAUGUCAACGUAGUCGAGGAUAUGGGCAGCCGUGAGGCGUACCAGAAGGCGAAGAGG [Mat - Same State 1 - Mod of JL - D4] (puzzle: Same State 1)”, the “apparent KD of MS2 coat protein” value reads like this: under setting [2], 0.0404 µM; under setting [3], 0.0888 µM; under setting [4], 0.132 µM.
